{"source": "paper PMC5748987", "about": "(The Journal of Cell Biology, 2018)", "binders": {"B1": {"name": "xAurA (cleaved from mCherry-xAurA) (enzyme)", "chain": "MERAVKENHKPSNVKIFHPMTEGAKRIPVNQPQSTQFRPPGTAVSAQRILGPSNVPQRVLAQAQKPILSSQKPTTQIPLRPATQGHQSSKPQGPNENRNPQQTSHSSTPNVEKKGSTDQGKTSAVPKEEGKKKQWCLEDFEIGRPLGKGKFGNVYLARERESKFILALKVLFKSQLEKAGVEHQLRREVEIQSHLRHPNILRLYGYFHDASRVYLILDYAPGGELFRELQKCTRFDDQRSAMYIKQLAEALLYCHSKKVIHRDIKPENLLLGSNGELKIADFGWSVHAPSSRRTTLCGTLDYLPPEMIEGRMHDETVDLWSLGVLCYEFLVGKPPFETDTHQETYRRISKVEFQYPPYVSEEARDLVSKLLKHNPNHRLPLKGVLEHPWIIKNSQLKKKDEPLPGAQ"}}, "key": {"[1]": {"molecular_target": "B1", "experiment": "pull-down"}, "YFP-xBuGZ (full length) [2]": {"molecular_target": "T1, YFP-xBuGZ (full length) (Xenopus laevis, UniProt Q7ZXV8 1-452)", "T1 sequence (Q7ZXV8 whole entry)": "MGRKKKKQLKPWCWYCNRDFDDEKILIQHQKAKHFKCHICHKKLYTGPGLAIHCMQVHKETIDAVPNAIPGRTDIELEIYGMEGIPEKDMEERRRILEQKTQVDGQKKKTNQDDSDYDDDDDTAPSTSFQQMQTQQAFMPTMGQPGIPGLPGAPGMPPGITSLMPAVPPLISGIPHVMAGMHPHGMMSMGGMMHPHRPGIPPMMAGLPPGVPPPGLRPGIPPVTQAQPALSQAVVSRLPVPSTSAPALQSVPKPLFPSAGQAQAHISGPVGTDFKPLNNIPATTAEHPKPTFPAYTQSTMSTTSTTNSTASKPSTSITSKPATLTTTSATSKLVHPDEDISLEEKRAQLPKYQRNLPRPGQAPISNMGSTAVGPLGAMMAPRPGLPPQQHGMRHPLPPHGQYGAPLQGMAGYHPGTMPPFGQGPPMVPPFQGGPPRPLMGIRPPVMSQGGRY", "experiment": "pull-down"}, "YFP-xBuGZΔN7": {"molecular_target": "YFP-xBuGZΔN7 (Xenopus laevis, UniProt Q7ZXV8 8-452)", "sequence (Q7ZXV8 8-452, stated change not applied)": "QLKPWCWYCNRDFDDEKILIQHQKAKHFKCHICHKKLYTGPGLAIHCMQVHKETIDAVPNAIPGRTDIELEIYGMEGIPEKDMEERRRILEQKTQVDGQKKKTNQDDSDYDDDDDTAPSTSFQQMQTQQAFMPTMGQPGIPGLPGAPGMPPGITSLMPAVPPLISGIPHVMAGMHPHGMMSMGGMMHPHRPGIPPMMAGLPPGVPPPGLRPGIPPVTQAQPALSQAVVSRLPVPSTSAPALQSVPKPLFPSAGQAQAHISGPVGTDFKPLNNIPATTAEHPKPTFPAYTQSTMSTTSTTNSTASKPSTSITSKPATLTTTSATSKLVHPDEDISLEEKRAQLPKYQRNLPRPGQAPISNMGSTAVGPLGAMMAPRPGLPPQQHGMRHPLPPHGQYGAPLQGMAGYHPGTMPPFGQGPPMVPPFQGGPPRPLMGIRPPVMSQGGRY", "experiment": "pull-down"}, "YFP-xBuGZ (full length) [3]": {"molecular_target": "T1, YFP-xBuGZ (full length)", "experiment": "co-sedimentation"}}, "data": [{"binder": "GST-xBuGZ(8–58) (domain or fragment) not shown", "values": [{"measurement": "binding result", "setting": "[1]", "value": "binds"}]}, {"binder": "GST-xAurA (full length, amino acids 1–407) (enzyme) MERAVKENHKPSNVKIFHPMTEGAKRIPVNQPQSTQFRPPGTAVSAQRILGPSNVPQRVLAQAQKPILSSQKPTTQIPLRPATQGHQSSKPQGPNENRNPQQTSHSSTPNVEKKGSTDQGKTSAVPKEEGKKKQWCLEDFEIGRPLGKGKFGNVYLARERESKFILALKVLFKSQLEKAGVEHQLRREVEIQSHLRHPNILRLYGYFHDASRVYLILDYAPGGELFRELQKCTRFDDQRSAMYIKQLAEALLYCHSKKVIHRDIKPENLLLGSNGELKIADFGWSVHAPSSRRTTLCGTLDYLPPEMIEGRMHDETVDLWSLGVLCYEFLVGKPPFETDTHQETYRRISKVEFQYPPYVSEEARDLVSKLLKHNPNHRLPLKGVLEHPWIIKNSQLKKKDEPLPGAQ", "values": [{"measurement": "binding result", "setting": "YFP-xBuGZ (full length) [2]", "value": "binds"}]}, {"binder": "GST-xAurA(127–407) (domain or fragment) KEEGKKKQWCLEDFEIGRPLGKGKFGNVYLARERESKFILALKVLFKSQLEKAGVEHQLRREVEIQSHLRHPNILRLYGYFHDASRVYLILDYAPGGELFRELQKCTRFDDQRSAMYIKQLAEALLYCHSKKVIHRDIKPENLLLGSNGELKIADFGWSVHAPSSRRTTLCGTLDYLPPEMIEGRMHDETVDLWSLGVLCYEFLVGKPPFETDTHQETYRRISKVEFQYPPYVSEEARDLVSKLLKHNPNHRLPLKGVLEHPWIIKNSQLKKKDEPLPGAQ", "values": [{"measurement": "binding result", "setting": "YFP-xBuGZ (full length) [2]", "value": "binds"}]}, {"binder": "B1", "values": [{"measurement": "binding result", "setting": "YFP-xBuGZΔN7", "value": "binds"}, {"measurement": "binding result", "setting": "YFP-xBuGZ (full length) [3]", "value": "binds"}]}]}
